# B1: glyceraldehyde-3-phosphate dehydrogenase (GapA) from E. coli (enzyme, E. coli K-12, UniProt P0A9B2 1-331, looked up)
# chain: MTIKVGINGFGRIGRIVFRAAQKRSDIEIVAINDLLDADYMAYMLKYDSTHGRFDGTVEVKDGHLIVNGKKIRVTAERDPANLKWDEVGVDVVAEATGLFLTDETARKHITAGAKKVVMTGPSKDNTPMFVKGANFDKYAGQDIVSNASCTTNCLAPLAKVINDNFGIIEGLMTTVHATTATQKTVDGPSHKDWRGGRGASQNIIPSSTGAAKAVGKVLPELNGKLTGMAFRVPTPNVSVVDLTVRLEKAATYEQIKAAVKAAAEGEMKGVLGYTEDDVVSTDFNGEVCTSVFDAKAGIALNDNFVKLVSWYDNETGYSNKVLDLIAHISK
# modifications: acetyl-lysine at K46, K249, K257 and K116 after the acP soak of the crystals (not in all molecules of the asymmetric unit)
# notes: glyceraldehyde-3-phosphate dehydrogenase GapA, E. coli K-12, ORF of the gene from the ASKA clone; The crystals were grown from unmodified protein and acetylated by a soak with acP of under 30 sec; source: E. coli BL-21 (DE3) Magic cells, ASKA clone in pCA24N, purified
# Molecular target: the molecule itself
# Experiment: crystal structure; GapA crystals from PACT G2 (0.2 M sodium bromide, 0.1 M Bis Tris propane 7.5, 20% PEG 3350), grown at 22°C, soaked with about 10 mM acP for less than 30 sec; data at 100 K
protein,measurement,value
B1,stoichiometry N,4

# — paper PMC3995681, “Structural, Kinetic and Proteomic Characterization of Acetyl Phosphate-Dependent Bacterial Protein Acetylation” (PLoS ONE, 2014)
